Where “and” joins values, the source holds several entries; their conditions need not be identical. Equal entries are not always repeated.
Tests used:
Test in all cases: SEC; analytical SEC, Superdex 200 Increase 10/300 GL, buffer W (100 mM Tris-HCl pH 8.0, 150 mM NaCl, 2.5 mM EDTA); protein solutions from the two AEC elution peaks; oligomeric state from the elution volume by the column's calibration
[1] = target: Chlamydomonas reinhardtii truncated hemoglobin THB11, full length (Chlamydomonas reinhardtii)
[2] = target: THB11-C (THB11 lacking the C-terminal 225 residues) (Chlamydomonas reinhardtii)
[3] = target: THB11-N (THB11 lacking the N-terminal 41 amino acids) (Chlamydomonas reinhardtii)

## Chlamydomonas reinhardtii truncated hemoglobin THB11, full length (natural protein)
[1]
  stoichiometry N: 3 and 7

## THB11-C (THB11 lacking the C-terminal 225 residues) (domain or fragment)
[2]
  stoichiometry N: 3

## THB11-N (THB11 lacking the N-terminal 41 amino acids) (domain or fragment)
[3]
  stoichiometry N: 3 and 7
